What was measured:
[1] = target: T1, GST-tagged mouse ZO-1(PDZ1) (residues 18–110) (mouse, UniProt P39447 18-110); test: SPR; BIACORE-3000; Trx-CLD3 peptide immobilized on a CM5 chip, PDZ domain as analyte (0 to 100 ug/mL), 20 uL/min; 10 mM HEPES pH 7.4, 150 mM NaCl, 3 mM EDTA, 0.005% Surfactant P20; KD by 'Affinity from steady-state'; no phytic acid; settings: both partners purified
T1 construct: zonula occludens 1 (ZO-1), mouse, first PDZ domain, residues 18-110; The methods say that the GST fusion proteins were used for the SPR analysis; also called first PDZ domain of zonula occludens 1; wild-type; source: E. coli BL21 (DE3), purified (glutathione-Sepharose FF), dialyzed
T1 sequence (looked up): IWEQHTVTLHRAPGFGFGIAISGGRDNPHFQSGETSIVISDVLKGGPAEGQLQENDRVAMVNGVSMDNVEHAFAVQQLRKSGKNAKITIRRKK

[2] = target: T2, mouse ZO-1(PDZ1) Arg28 Ala-substituted mutant (mouse, UniProt P39447 18-110, Arg28 Ala-substituted); test: as above; settings: both partners purified
T2 construct: zonula occludens 1 (ZO-1), mouse, first PDZ domain, residues 18-110, with Arg28 changed to Ala; Made by mutagenesis of the whole expression plasmid of ZO-1(PDZ1); no cleavage of GST is described for the mutants; also called Arg28 mutation; source: purified with glutathione-Sepharose, dialyzed
T2 sequence (looked up): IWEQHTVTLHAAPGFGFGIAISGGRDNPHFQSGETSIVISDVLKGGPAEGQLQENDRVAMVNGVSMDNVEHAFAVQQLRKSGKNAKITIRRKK

B1: His6-tagged thioredoxin (Trx) fusion protein of mouse CLD-3 C-terminus (Trx-CLD3, residues 210–219) (domain or fragment, UniProt Q9Z0G9 210-219, looked up)
chain: GTAYDRKDYV
notes: claudin-3 (CLD-3), mouse, C-terminus, residues 210-219; also called Trx-CLD3 peptide; CLD-3 peptide; source: E. coli BL21 (DE3), purified (Ni2+-chelating-Sepharose), dialyzed
With B1 the Kd [1] was 170 nM and the binding result [2] was “binds”.
